From paper PMC7526893 come the findings set out here.

The assay concerns the target FLAG-tagged vasodilator-stimulated phosphoprotein (FLAG-VASP), wildtype (human) (UniProt P50552). In words: proximity ligation; 293T cells co-expressing p8-HA and FLAG-VASP or FLAG-N-WASP, fixed with 2% PFA; mouse anti-FLAG and rabbit anti-HA, Duolink In Situ Red kit; dots per positive cell counted.
UniProt P50552, sequence (P50552 whole entry): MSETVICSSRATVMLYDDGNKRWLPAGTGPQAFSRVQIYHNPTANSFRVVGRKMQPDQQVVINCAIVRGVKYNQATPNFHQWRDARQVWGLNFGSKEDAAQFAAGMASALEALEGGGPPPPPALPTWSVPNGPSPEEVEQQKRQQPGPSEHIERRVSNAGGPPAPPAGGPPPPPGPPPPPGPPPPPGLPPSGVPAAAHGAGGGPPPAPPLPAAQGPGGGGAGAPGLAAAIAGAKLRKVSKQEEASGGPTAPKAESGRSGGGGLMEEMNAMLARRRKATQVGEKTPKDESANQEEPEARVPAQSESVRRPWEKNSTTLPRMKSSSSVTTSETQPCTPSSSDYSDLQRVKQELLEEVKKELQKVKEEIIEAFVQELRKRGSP

As for “HTLV-1 p8 protein, HA-tagged (p8-HA) (natural protein)”, the PLA spots per cell (spots per cell) is 7.
